Assay [1] concerns the target SARS-CoV-2 HexaPro Spike protein for cryoEM analysis (SARS-CoV-2 (Wuhan-Hu-1), UniProt P0DTC2, stabilised). The assay can be described thus: cryo-EM structure.
Assay [2] deals with yeast-displayed unmutated SARS-CoV-2 RBD (Wuhan-Hu-1) (SARS-CoV-2, UniProt P0DTC2). The assay can be described thus: flow cytometry on cells. On the technique in general: In flow cytometry, cells or beads pass a laser one at a time.

B1: S2D106 Fab (Fab, V domains shown)
VH: EVQLVQSGAEVKKPGSSVKVSCKASGGPFSSSAISWVRQAPGQGLEWMGGIIPMVGTANYAQKFQGRVTITADESTSTAYMELSSLRSEDTAVYYCARDSRYCSGGSCYSVWFDPWGQGTLVTVSS
VL: not shown
Turning to B1, the binding result in assay [1] was “binds”.

B2: S2H14 IgG1 (LS) (antibody, V domains shown)
VH: not shown
VL: NFMLTQPHSVSESPGKTVTISCTRSSGSIASNYVQWYQQRPGSSPTTVIYEDNQRPSGVPDRFSGSIDSSSNSASLTISGLKTEDEADYYCQSYDSSNQVFGGGTKLTVL
On to B2, for which the binding result in assay [2] was “binds”.

B3: S2H97 Fab (Fab, V domains shown)
VH: QVRLVQSGAEVKKSGESLKISCKGSGYSFTSYWIGWVRQMPGKGLEWMGIIYPGDSDTRYSPSFQGQVTISADKSISTVYLQWSSLKASDTAMYYCARQWSHYTYDYYYWGQGTLVTISS
VL: QSVLTQPASVSGSPGQSITISCTGISSDVGGYNSVSWYQQHPGKAPKLMIYDVTNRPSGVSNRFSGSKSGNTASLTISGLQAEDEADYYCSSYTSSSTPPYVFGTGTKVSVL
As for B3, the binding result in assay [1] was “binds”.

The values above are taken from paper PMC8043444 (bioRxiv, 2021).
